The assay concerns the target GST-TFIIB fusion protein (UniProt Q00403). As to the kind of experiment: pull-down.
Chain of UniProt Q00403 (Q00403 whole entry, the tested form may be a part): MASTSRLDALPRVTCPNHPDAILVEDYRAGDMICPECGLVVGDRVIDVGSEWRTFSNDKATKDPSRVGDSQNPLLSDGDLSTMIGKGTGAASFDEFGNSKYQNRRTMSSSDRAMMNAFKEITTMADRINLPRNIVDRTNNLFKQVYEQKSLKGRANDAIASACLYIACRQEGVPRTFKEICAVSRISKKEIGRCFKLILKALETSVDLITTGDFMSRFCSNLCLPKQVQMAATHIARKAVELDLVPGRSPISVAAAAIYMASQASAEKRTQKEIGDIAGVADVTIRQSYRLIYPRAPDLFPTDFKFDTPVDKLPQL

Regarding “35S-IR2P(78-397)-NH (domain or fragment)”, the percent of input precipitated was 12 % of input. As to “35S-IR2P(78-438)-NH (domain or fragment)”, the percent of input precipitated is 13 % of input.

These data come from PMC3388945.
